This note sets out measurements from WO2015086830A1 (dated 2015).

Experiment [1] has as its target VEGF (vascular endothelial growth factor) (UniProt P15692-4 27-191, limits assumed). The experiment is described as follows: cell-based or functional assay.
Another experiment concerns the target T1, VEGF165 (UniProt P15692-4 27-191).
T1 construct: P15692 is the human VEGFA entry; VEGF165 is one isoform of that entry; also called VEGFA isoform 165
The experiment can be described thus: in vitro binding; method not stated.

T1 sequence (P15692 other isoform, or with tags, fused parts or gaps limits assumed): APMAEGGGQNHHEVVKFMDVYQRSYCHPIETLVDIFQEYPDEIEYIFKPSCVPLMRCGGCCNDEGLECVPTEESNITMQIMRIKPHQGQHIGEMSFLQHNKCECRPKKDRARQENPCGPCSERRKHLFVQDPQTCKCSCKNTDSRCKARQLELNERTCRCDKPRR
VEGF (vascular endothelial growth factor), sequence (P15692 other isoform, or with tags, fused parts or gaps limits assumed): as above

B1: scFv3, anti-VEGF-scFv comprising SEQ ID No.: 3 (scFv)
scFv: EIVMTQSPSTLSASVGDRVIITCQASEIIHSWLAWYQQKPGKAPKLLIYLASTLASGVPSRFSGSGSGAEFTLTISSLQPDDFATYYCQNVYLASTNGANFGQGTKLTVLGGGGGSGGGGSGGGGSGGGGSEVQLVESGGGLVQPGGSLRLSCTASGFSLTDYYYMTWVRQAPGKGLEWVGFIDPDDDPYYATWAKGRFTISRDNSKNTLYLQMNSLRAEDTAVYYCAGGDHNSGWGLDIWGQGTLVTVSS
notes: About 26.3 kDa
In the case of B1, the “VEGF induced HUVEC proliferation, IC50” value in experiment [1] came to 0.19 nM. Further, in the experiment with VEGF165, binding was characterised by a dissociation constant (Kd) of 0.0284 nM.
